Measured values from article PMC2494536 (Cell, 2008).
Read-outs that look alike come from different tables or passages of the source.

B1: kinase domain of wildtype chicken c-Src, residues 251-533 (domain or fragment, UniProt P00523 251-533, looked up)
chain: QTQGLAKDAWEIPRESLRLEVKLGQGCFGEVWMGTWNGTTRVAIKTLKPGTMSPEAFLQEAQVMKKLRHEKLVQLYAVVSEEPIYIVTEYMSKGSLLDFLKGEMGKYLRLPQLVDMAAQIASGMAYVERMNYVHRDLRAANILVGENLVCKVADFGLARLIEDNEYTARQGAKFPIKWTAPEAALYGRFTIKSDVWSFGILLTELTTKGRVPYPGMVNREVLDQVERGYRMPCPPECPESLHDLMCQCWRKDPEERPTFEYLQAFLEDYFTSTEPQYQPGENL
B2: kinase domain of Csk, residues 187-450 (domain or fragment, UniProt P41240 187-450, looked up)
chain: GWALNMKELKLLQTIGKGEFGDVMLGDYRGNKVAVKCIKNDATAQAFLAEASVMTQLRHSNLVQLLGVIVEEKGGLYIVTEYMAKGSLVDYLRSRGRSVLGGDCLLKFSLDVCEAMEYLEGNNFVHRDLAARNVLVSEDNVAKVSDFGLTKEASSTQDTGKLPVKWTAPEALREKKFSTKSDVWSFGILLWEIYSFGRVPYPRIPLKDVVPRVEKGYKMDAPDGCPPAVYEVMKNCWHLDAAMRPSFLQLREQLEHIKTHELHL

Experiments:
Assay in all cases: SPR
[1] = biological target: T1, full-length Csk (C-terminal Src Kinase), residues 1-450 (UniProt P41240 1-450)
[2] = biological target: T2, Csk construct lacking the SH3 domain (SH2 and kinase domains), residues 68-450 (UniProt P41240 68-450)
[3] = biological target: T1, full-length Csk (C-terminal Src …); remark: listed apart in the source
[4] = biological target: T2, Csk construct lacking the SH3 domain …; remark: listed apart in the source
[5] = biological target: B1

Row | Kd [1] | Kd [2] | Kd [3] | Kd [4] | Kd [5] | Binder
1 | ~4 µM | ~4 µM | ~30 µM | ~30 µM | – | B1
2 | – | – | – | – | ~70 µM | B2
